Results from US20250276077A1 (IMMUNOME, published 2025).

How the values were obtained:
[1] = target: T1, Human EphA2 (ephrin receptor A2) on cells (human, UniProt P29317 25-976); assay: cell-based or functional assay
[2] = target: T1, Human EphA2 (ephrin receptor A2) on …; assay: cell-based or functional assay; remark: listed apart in the source
[3] = target: T1, Human EphA2 (ephrin receptor A2) on …; assay: cell-based or functional assay; remark: listed apart in the source
[4] = target: T2, C-terminally His-tagged hEphA2-FN2 (Thr437-Asn534+His tag) (human, UniProt P29317 437-534); assay: SPR Biacore T200, 25 C; mIgG2a as immobilized ligand, hEphA2-FN2-His analyte
T2 construct: also called FN2 domain of hEphA2
Procedure: Binding of EphA2 antibodies to the FN2 domain of hEphA2 was measured using the Biacore® T200 SPR system. Biacore® assays were conducted at 25° C. using HBS-EP+ buffer (0.01 M HEPES pH 7.4, 0.15 M NaCl, 3 mM EDTA, 0.005% v/v Surfactant P20) using the FN2 domain as the analyte with the antibodies in mIgG2a format as the immobilized ligand. Data was analyzed using 1:1 Langmuir binding model and steady-state model in Biacore Evaluation software.
C-terminally His-tagged human EphA2 FN2 domain (Thr437-Asn534+His tag) was used as the analyte. The analyte was associated for 120 seconds and dissociated for 100 seconds or 300 seconds at 30 μL/min.

[5] = target: T2, C-terminally His-tagged hEphA2-FN2 …; assay: SPR Biacore T200, 25 C; mIgG2a captured by anti-mouse Fc, hEphA2-FN2-His analyte; steady-state monovalent KD
Procedure: Binding of antibodies to the FN2 domain of hEphA2 was measured using the Biacore® T200 SPR system at 25° C. using HBS-EP+ buffer (0.01 M HEPES pH 7.4, 0.15 M NaCl, 3 mM EDTA, 0.005% v/v Surfactant P20). Antibodies in mIgG2a format were captured at levels between 475-715 RU via an anti-mouse Fc antibody immobilized to a CM5 chip. Binding was assessed using a titration of C-terminally His-tagged hEphA2-FN2 (Thr437-Asn534+His tag) associated for 30 s or 75 s at 30 μL/min. Data was double-reference subtracted using both a surface without captured antibody and from injections of HBS-EP+ buffer. The equilibrium response was measured at 4 seconds before the end of association with a window of 5 seconds and fit using the Biacore T200 Evaluation Software 3.1 with the Steady State Affinity Model.

Human EphA2 [6] = target: T3, Human EphA2 (human, UniProt P29317 24-976); assay: IHC/IF on frozen human tumor tissue: NSCLC-Adeno
T3 construct: Endogenous EphA2 in fresh frozen human tumor tissue sections, not a recombinant protein; also called ephrin receptor A2; hEphA2

Human EphA2 [7] = target: T3, Human EphA2; assay: IHC/IF on frozen human tumor tissue: OVA
Human EphA2 [8] = target: T3, Human EphA2; assay: IHC/IF on frozen human tumor tissue: PANC
Human EphA2 [9] = target: T3, Human EphA2; assay: IHC/IF on frozen human tumor tissue: ESO
Human EphA2 [10] = target: T3, Human EphA2; assay: IHC/IF on frozen human tumor tissue: TNBC
Human EphA2 [11] = target: T3, Human EphA2; assay: IHC/IF on frozen human tumor tissue: NSCLC-SQ
Human EphA2 [12] = target: T3, Human EphA2; assay: IHC/IF on frozen human tumor tissue: Her2+ BRC
Human EphA2 [13] = target: T3, Human EphA2; assay: IHC/IF on frozen human tumor tissue: RCC-papillary
Human EphA2 [14] = target: T3, Human EphA2; assay: IHC/IF on frozen human tumor tissue: ANC
Human EphA2 [15] = target: T3, Human EphA2; assay: IHC/IF on frozen human tumor tissue: URO
Human EphA2 [16] = target: T3, Human EphA2; assay: IHC/IF on frozen human tumor tissue: RCC-clear cell
Human EphA2 [17] = target: T3, Human EphA2; assay: IHC/IF on frozen human tumor tissue: GAC
Human EphA2 [18] = target: T3, Human EphA2; assay: IHC/IF on frozen human tumor tissue: MELA
Human EphA2 [19] = target: T3, Human EphA2; assay: IHC/IF on frozen human tumor tissue: ER+ BRC
Human EphA2 [20] = target: T3, Human EphA2; assay: IHC/IF on frozen human tumor tissue: UCEC-endometrioid
Human EphA2 [21] = target: T3, Human EphA2; assay: IHC/IF on frozen human tumor tissue: HNC
Human EphA2 [22] = target: T3, Human EphA2; assay: IHC/IF on frozen human tumor tissue: STS
Human EphA2 [23] = target: T3, Human EphA2; assay: IHC/IF on frozen human tumor tissue: UCEC-papillary
Human EphA2 [24] = target: T3, Human EphA2; assay: IHC/IF on frozen human tumor tissue: PROC
Human EphA2 [25] = target: T3, Human EphA2; assay: IHC/IF on frozen human tumor tissue: CRC
Human EphA2 [26] = target: T3, Human EphA2; assay: IHC/IF on frozen human tumor tissue: UCEC-clear cell

B1: AB-010357 (antibody, mouse IgG2a, V domains shown)
VH: QVQLQQWGAGLLKPSETLSLTCAVYGGSFSDYYWSWIRQPPGKGLEWIGEINHRGSINYNNYNPSLKSRVTISVDTSKNQFSLKLSSVTAADTAVYYCAKPLRPHCTNGVCYSGDAFDIWGQGTMVTVAS
VL: SYVLTQPPSVSVAPGQTARITCGGNNIGSKNVHWYQQKPGQAPVLVVYDDSDRPSGIPEQFSGSNSGNTATLTISRVEAGDEADYYCQVWDSSSDHVVFGGGTKLTVL
ADCC EC50 (nM), parent, A549 [1]: 10.9 nM | ADCC - EC50 (nM), Trial 1, A549 [2]: 12.3 nM | ADCC - EC50 (nM), Trial 2, A549 [2]: 9.6 nM | ADCC EC50 [3]: 11.6 nM | ADCC Fold-improved (against AB-008873) [3]: 3 fold

B2: AB-010363 (antibody, V domains shown)
VH: QVQLQQWGAGLLKPSETLSLTCAVYGGSFSGYYWSWIRQPPGKGLEWIGEINHRGSINYNNYNPSLKSRVTISVDTSKNQFSLKLSSVTAADTAVYYCAKPLRPHCTNGVCYSGDAFDIWGQGTMVTVAS
VL: SYVLTQPPSVSVAPGQTARITCGGNNIGSKNVHWYQQKPGQAPVLVVYDDSDRPSGIPERFSGSNSGNTATLTISRVEAGDEADYYCQVWDSSSDHVVFGGGTKLTVL
ADCC EC50 (nM), parent, A549 [1]: 4.65 nM | ADCC - EC50 (nM), Trial 1, A549 [2]: 5.1 nM | ADCC - EC50 (nM), Trial 2, A549 [2]: 4.2 nM | ADCC EC50 [3]: 9.5 nM | ADCC Fold-improved (against AB-008873) [3]: 3.66 fold

B3: AB-010361 (antibody, mouse IgG2a, V domains shown)
VH: QVQLQQWGAGLLKPSETLSLTCAVYGGSFSGYYWSWIRQPPGKGLEWIGEINHRGSINYNNYNPSLKSRVTISVDTSKNQFSLKLSSVTAADTAVYYCAKPLRPHCTNGVCYSGDAFDIWGQGTMVTVAS
VL: SYVLTQPPSVSVAPGQTARITCGGNNIGSKNVHWYQQKPGQAPVLVVYDDSDRPSGIPEQFSGSNSGNTATLTISRVEAGDEADYYCQVWDSSSDHVVFGGGTKLTVL
ADCC EC50 (nM), parent, A549 [1]: 3.1 nM | ADCC - EC50 (nM), Trial 1, A549 [2]: 4 nM | ADCC - EC50 (nM), Trial 2, A549 [2]: 2.2 nM | ADCC EC50 [3]: 3.1 nM | ADCC Fold-improved (against AB-008873) [3]: 11.2 fold

B4: AB-010699 (mouse IgG2a format) (antibody, V domains shown)
VH: QVQLQQWGAGLLKPSETLSLTCAVYGGSFSGYYWSWIRQPPGKGLEWIGEINHRGSINYNNYNPSLKSRVTISVDTSKNQFSLKLSSVTAADTAVYYCAKPLRPHCINGVCYSGDAFDIWGQGTMVTVAS
VL: SYVLTQPPSVSVAPGQTARITCGGNNIGYKNVHWYQQKPGQAPVLVVYDDSDRPSGIPERFSGSNSGNTATLTISRVEAGDEADYYCQVWDHSSDHVVFGGGTKLTVL
notes: tested in mIgG2a format
Kd [4]: 19 nM | koff [4]: 0.075 s⁻¹ | kon [4]: 3.9e+06 M⁻¹ s⁻¹ | Kd [5]: 18.9 nM

B5: AB-009815 (antibody, mouse IgG2a, V domains shown)
VH: QVQLQQWGAGLLKPSETLSLTCAVYGGSFSDYYWSWIRQPPGKGLEWIGEVNHRGSINYNNYNPSLKSRVTISVDTSKNQFSLKLTSVTAADTAVYYCAKPLRPHCTNGVCYSGDAFDIWGQGTMVTVAS
VL: SYVLTQPPSVSVAPGQTARITCGGNNIGSKNVHWYQQKPGQAPVLVVYDDSDRPSGIPEQFSGSNSGNTATLTISRVEAGDEADYYCQVWDSSSDHLVFGGGTKLTVL
notes: Made on a mouse IgG2a framework
IHC score (Human EphA2 [6]): 2 | IHC score (Human EphA2 [7]): 2 | IHC score (Human EphA2 [8]): 1 | IHC score (Human EphA2 [9]): 2 | IHC score (Human EphA2 [10]): 1 | IHC score (Human EphA2 [11]): 1 | IHC score (Human EphA2 [12]): 2 | IHC score (Human EphA2 [13]): 1 | IHC score (Human EphA2 [14]): 2 | IHC score (Human EphA2 [15]): 1 | IHC score (Human EphA2 [16]): 1 | IHC score (Human EphA2 [17]): 2 | IHC score (Human EphA2 [18]): 2 | IHC score (Human EphA2 [19]): 1 | IHC score (Human EphA2 [20]): 1 | IHC score (Human EphA2 [21]): 2 | IHC score (Human EphA2 [22]): 2 | IHC score (Human EphA2 [23]): 2 | IHC score (Human EphA2 [24]): 1 | IHC score (Human EphA2 [25]): 1 | IHC score (Human EphA2 [26]): 2

B6: AB-009816 (antibody, mouse IgG2a, V domains shown)
VH: QVQLQQWGAGLLKPSETLSLTCAVYGGSFSDYYWSWIRQPPGKGLEWIGEVNHRGSINYNNYNPSLKSRVTISVDASKNQFSLKLTSVTAADTAVYYCAKPLRPHCTNGVCYSGDAFDIWGQGTMVTVAS
VL: SYVLTQPPSVSVAPGQTARITCGGNNIGSKNVHWYQQKPGQAPVLVVYDDSDRPSGIPEQFSGSNSGNTATLTISRVEAGDEADYYCQVWDSSSDHLVFGGGTKLTVL
notes: as for B5
IHC score (Human EphA2 [6]): 2 | IHC score (Human EphA2 [7]): 2 | IHC score (Human EphA2 [8]): 1 | IHC score (Human EphA2 [9]): 2 | IHC score (Human EphA2 [10]): 1 | IHC score (Human EphA2 [11]): 1 | IHC score (Human EphA2 [12]): 2 | IHC score (Human EphA2 [13]): 1 | IHC score (Human EphA2 [14]): 2 | IHC score (Human EphA2 [15]): 1 | IHC score (Human EphA2 [16]): 1 | IHC score (Human EphA2 [17]): 2 | IHC score (Human EphA2 [18]): 2 | IHC score (Human EphA2 [19]): 1 | IHC score (Human EphA2 [20]): 1 | IHC score (Human EphA2 [21]): 2 | IHC score (Human EphA2 [22]): 2 | IHC score (Human EphA2 [23]): 2 | IHC score (Human EphA2 [24]): 1 | IHC score (Human EphA2 [25]): 1 | IHC score (Human EphA2 [26]): 2
